Assay results published in US20180244734A1.

Target: anti-BBP1 polyclonal antibody
Test: competitive ELISA, free peptide against coated BBP1-biotin peptide for the anti-BBP1 polyclonal antibody

- lowest level detected: 2.5 µg/mL
Binder: HSYSTNSFSRTTNG [BBP1 peptide (SEQ ID No. 7)]
